From patent US20230107890A1 (HOBER BIOTECH, published 2023)
Groups on a side chain read outwards from the residue. No end group written: not given here. *: point of attachment. DOTA = O=C(O)CN1CCN(CC(=O)O)CCN(CC(=O)*)CCN(CC(=O)O)CC1

B1: MG-DEAVDANS-ADAPT6-GSSC (designed binder)
chain: MGDEAVDANSLAAAKETALYHLDRLGVADAYKDLIDKAKTVEGVKARYFEILHALPGSSC
notes: also called non-fused ADAPT6; unfused control
B2: MG-DEAVDANS-ABD035-(SSSG)3-ADAPT6-GSSC-HPEM-125I (designed binder)
chain: MGDEAVDANSLAEAKVLANRELDKYGVSDFYKRLINKAKTVEGVEALKLHILAALPSSSGSSSGSSSGLAAAKETALYHLDRLGVADAYKDLIDKAKTVEGVKARYFEILHALPGSSC
modifications: C-terminal cysteine coupled to 125I-labelled ((4-hydroxyphenyl)ethyl)maleimide (HPEM)
B3: MG-DEAVDANS-ABD035-(SSSG)3-ADAPT6-GSSC-DOTA-177Lu (designed binder)
chain: B2 chain
modifications: C-terminal cysteine coupled to maleimide-DOTA chelating 177Lu
B4: MG-DEAVDANS-ADAPT6-(SSSG)3-ABD035-GSSC-DOTA-177Lu (designed binder)
chain: MGDEAVDANSLAAAKETALYHLDRLGVADAYKDLIDKAKTVEGVKARYFEILHALPSSSGSSSGSSSGLAEAKVLANRELDKYGVSDFYKRLINKAKTVEGVEALKLHILAALPGSSC
modifications: C-terminal cysteine coupled to maleimide-DOTA chelating 177Lu
notes: also called Inventive 1
B5: MG-DEAVDANS-ADAPT6-(SSSG)3-ABD035-GSSC-HPEM-125I (designed binder)
chain: B4 chain
modifications: C-terminal cysteine coupled to 125I-labelled ((4-hydroxyphenyl)ethyl)maleimide (HPEM)
notes: also called Inventive 2
B6: MG-DEAVDANS-ADAPT6-GSSC-DOTA-177Lu (designed binder)
chain: MGDEAVDANSLAAAKETALYHLDRLGVADAYKDLIDKAKTVEGVKARYFEILHALPGSSC([maleimide-DOTA])
modifications: also: 177Lu chelated by DOTA
B7: MG-DEAVDANS-ADAPT6-GSSC-HPEM-125I (designed binder)
chain: B1 chain
modifications: C-terminal cysteine coupled to 125I-labelled ((4-hydroxyphenyl)ethyl)maleimide (HPEM)
notes: Radioiodinated form of the non-fused control
B8: MG-DEAVDANS-ABD035-(SSSG)3-ADAPT6-GSSC (designed binder)
chain: B2 chain
notes: also called ABD035-ADAPT6
B9: MG-DEAVDANS-ADAPT6-(SSSG)3-ABD035-GSSC (designed binder)
chain: B4 chain
B10: MG-DEAVDANS-ABD35-(SSSG)5-ADAPT6-GSSC (designed binder)
chain: MGDEAVDANSLAEAKVLANRELDKYGVSDFYKRLINKAKTVEGVEALKLHILAALPSSSGSSSGSSSGSSSGSSSGLAAAKETALYHLDRLGVADAYKDLIDKAKTVEGVKARYFEILHALPGSSC
notes: also called ABD035-(SSSG)5-ADAPT6
B11: MG-DEAVDANS-ADAPT6-(SSSG)5-ABD35-GSSC (designed binder)
chain: MGDEAVDANSLAAAKETALYHLDRLGVADAYKDLIDKAKTVEGVKARYFEILHALPSSSGSSSGSSSGSSSGSSSGLAEAKVLANRELDKYGVSDFYKRLINKAKTVEGVEALKLHILAALPGSSC
notes: also called ADAPT6-(SSSG)5-ABD035
B12: MGDEAVDANS-ADAPTNeg-(SSSG)3-ABD035-GSSC (designed binder)
chain: MGDEAVDANSLAEAKVLANRELDKYGVADAYKNLINNAKTVEGVKARIDEILAALPSSSGSSSGSSSGLAEAKVLANRELDKYGVSDFYKRLINKAKTVEGVEALKLHILAALPGSSC

target: T1, Human Epidermal growth factor receptor 2 (HER2), immobilised on a CM5 chip (human, UniProt P04626 23-652, limits assumed); experiment: SPR, HER2 immobilised on CM5 chip, analyte 3.125-50 nM with 10x excess HSA
Description: (§1) In the graphs of FIG. 4, the X axis represents time [s] and the Y axis represents Response Unit [RU].
(§2) Target binding analysis was performed on a Biacore T200 system (GE Healthcare, Stockholm, Sweden) by injecting analytes over a CM5 chip immobilized with Murine Serum Albumin (MSA), Human Serum Albumin (HSA) and Human Epidermal growth factor receptor 2 (HER2) to a response level of […] each. Experimental parameters have been described previously (Garousi 2019).

Does B1 bind?
Result: binds

target: T2, HER2 on living HER2-expressing cells (SKOV-3, BT-474) (human, UniProt P04626 23-1255); experiment: LigandTracer, living SKOV-3 cells; KD2 (weaker of two interactions)
T2 construct: whole, on cells; also called HER2 receptors in cells; HER2 on living cells
Description: (§3) Cell-lines were purchased from American Type Culture Collection (ATCC, Manassas, Va.). […] The affinity of radiolabeled conjugates binding to living HER2-expressing SKOV-3 cells was determined using LigandTracer (Ridgeview Instruments AB) by an established method as described previously (Tolmachev 2014).

With B2 as the binder, how does the Kd read?
Its Kd is 28 nM.

How did the Kd turn out when B3 was run?
The Kd was 38 nM.

Which Kd does the source give for B4 here?
Its Kd is 33 nM.

For B5, which Kd is on record?
The Kd was 36 nM.

B6 was tested. Which Kd did it give?
Its Kd is 41 nM.

How did the Kd turn out when B7 was run?
Its Kd is 27 nM.

target: T3, Murine Serum Albumin (MSA) (murine, UniProt P07724 25-608); experiment: SPR, MSA immobilised on CM5 chip, analyte injected at 3.125-50 nM
Description: as §1, §2

Does B1 bind?
Result: no binding (tested: 50 nM)

target: T1, Human Epidermal growth factor receptor …; experiment: SPR (Biacore T200), HER2 immobilised on CM5 chip
Description: as §2

Which Kd does the source give for B8 here?
The Kd was 5.2 nM.

How did the Kd turn out when B9 was run?
The Kd was 4.67 nM.

How did the Kd turn out when B10 was run?
The Kd was 4.32 nM.

How did the Kd turn out when B11 was run?
Its Kd is 4.45 nM.

target: T4, Human Serum Albumin (HSA) (human, UniProt P02768 25-609); experiment: SPR (Biacore T200), HSA immobilised on CM5 chip
Description: as §2

T4 sequence (P02768 25-609 limits assumed): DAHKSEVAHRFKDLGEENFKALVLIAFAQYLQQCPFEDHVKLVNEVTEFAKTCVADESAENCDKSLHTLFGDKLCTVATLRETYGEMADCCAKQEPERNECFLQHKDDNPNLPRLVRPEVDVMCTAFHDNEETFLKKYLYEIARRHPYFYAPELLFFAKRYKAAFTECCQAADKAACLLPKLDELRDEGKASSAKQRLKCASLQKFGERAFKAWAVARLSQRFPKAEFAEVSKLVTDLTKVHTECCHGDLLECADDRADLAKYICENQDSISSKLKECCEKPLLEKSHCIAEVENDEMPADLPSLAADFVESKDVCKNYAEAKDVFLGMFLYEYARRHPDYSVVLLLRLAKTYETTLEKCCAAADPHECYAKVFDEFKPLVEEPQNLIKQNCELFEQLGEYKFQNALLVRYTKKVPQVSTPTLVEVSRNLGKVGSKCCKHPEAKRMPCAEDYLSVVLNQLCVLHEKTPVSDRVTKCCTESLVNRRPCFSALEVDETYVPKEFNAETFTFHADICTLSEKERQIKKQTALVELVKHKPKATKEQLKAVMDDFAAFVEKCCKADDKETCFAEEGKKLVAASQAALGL

Which Kd does the source give for B8 here?
Its Kd is 0.0521 nM.

How did the Kd turn out when B9 was run?
Its Kd is 0.0498 nM.

Which Kd does the source give for B10 here?
The Kd was 0.052 nM.

For B11, which Kd is on record?
The Kd was 0.0538 nM.

target: T1, Human Epidermal growth factor receptor …; experiment: SPR, successive injections without regeneration, on HER2; concentrations not given

Does B12 bind?
Result: no binding

target: T3, Murine Serum Albumin (MSA); experiment: SPR (Biacore T200), MSA immobilised on CM5 chip
Description: as §2

How did the Kd turn out when B8 was run?
The Kd was 1.83 nM.

For B9, which Kd is on record?
Its Kd is 1.76 nM.

B11 was tested. Which Kd did it give?
Its Kd is 1.8 nM.

target: T4, Human Serum Albumin (HSA); experiment: SPR, HSA immobilised on CM5 chip, analyte injected at 3.125-50 nM
Description: as §1, §2

Does B1 bind?
Result: no binding (tested: 50 nM)

target: T2, HER2 on living HER2-expressing cells …; experiment: LigandTracer, living SKOV-3 cells; KD1 (stronger of two interactions)
Description: as §3

With B2 as the binder, how does the Kd read?
Its Kd is 0.15 nM.

For B3, which Kd is on record?
The Kd was 0.432 nM.

With B4 as the binder, how does the Kd read?
Its Kd is 0.485 nM.

Which Kd does the source give for B5 here?
Its Kd is 0.6 nM.

How did the Kd turn out when B6 was run?
Its Kd is 0.337 nM.

With B7 as the binder, how does the Kd read?
The Kd was 0.41 nM.
